{
  "source": "patent US11504441B2",
  "about": "“Radiolabeled compounds targeting the prostate-specific membrane antigen” (PROVINCIAL HEALTH SERVICES AUTHORITY, priority 2019, dated 2022)",
  "test": "in vivo",
  "details": "male, NODSCID 1L2RγKO, mouse, iv, total radioactivity",
  "protocol": "LNCaP cell line was obtained from ATCC (LNCaP clone FGC, CRL-1740). […] Cells were cultured in PRM I 1640 medium supplemented with 10% FBS, penicillin (100 U/mL) and streptomycin (100 μg/mL) at 37° C. in a humidified incubator containing 5% CO2. Cells grown to 80-90% confluence were then washed with sterile phosphate-buffered saline (1× PBS pH 7.4) and collected by trypsinization. The collected cells concentration was counted with a Hausser Scientific (Horsham, Pa.) Hemacytometer.\nImaging and biodistribution experiments were performed using NODSCID 1 L2RγKO male mice. Mice were anesthetized by inhalation with 2% isoflurane in oxygen, and implanted subcutaneously with 1×10^7 LNCaP cells behind left shoulder. Mice were imaged or used in biodistribution studies when the tumor grew up to reach 5-8 mm in diameter during 5-6 weeks.\nPET imaging experiments were conducted using Siemens Inveon micro PET/CT scanner. Each tumor bearing mouse was injected 6-8 MBq of Ga-68 labeled tracer through the tail vein under anesthesia (2% isoflurane in oxygen). The mice were allowed to recover and roam freely in their cage. After 50 min, the mice were sedated again with 2% isoflurane in oxygen inhalation and positioned in the scanner. A 10-min CT scan was conducted first for localization and attenuation correction after segmentation for reconstructing the PET images. Then, a 10-min static PET imaging was performed to determined uptake in tumor and other organs. The mice were kept warm by a heating pad during acquisition. For biodistribution studies, the mice were injected with the radiotracer as described above. The mice was anesthetized with 2% isoflurane inhalation, and euthanized by CO2 inhalation. Blood was withdrawn immediately from the heart, and the organs/tissues of interest were collected. The collected organs/tissues were weighed and counted using a Perkin Elmer (Waltham, Mass.) Wizard2 2480 gamma counter. The uptake in each organ/tissue was normalized to the injected dose using a standard curve, and expressed as the percentage of the injected dose per gram of tissue (% ID/g).\nLNCaP cell line was obtained from ATCC (LNCaP clone FGC, CRL-1740). […] Cells were cultured in PRM I 1640 medium supplemented with 10% FBS, penicillin (100 U/mL) and streptomycin (100 μg/mL) at 37° C. in a humidified incubator containing 5% CO2. Cells grown to 80-90% confluence were then washed with sterile phosphate-buffered saline (1× PBS pH 7.4), and collected by trypsinization. The collected cell concentration was counted with a Hausser Scientific (Horsham, Pa.) Hemacytometer.\nImaging and biodistribution experiments were performed using NODSCID 1L2RγKO male mice. Mice were anesthetized by inhalation with 2% isoflurane in oxygen, and implanted subcutaneously with 1×10^7 LNCaP cells behind left shoulder. Mice were imaged or used in biodistribution studies when the tumor grew up to reach 5-8 mm in diameter during 5-6 weeks.\nPET imaging experiments were conducted using Siemens Inveon micro PET/CT scanner. Each tumor bearing mouse was injected 6-8 MBq of Ga-68 or F-18 labeled tracer through the tail vein under anesthesia (2% isoflurane in oxygen). The mice were allowed to recover and roam freely in their cage. After 50 min, the mice were sedated again with 2% isoflurane in oxygen inhalation and positioned in the scanner. A 10-min CT scan was conducted first for localization and attenuation correction after segmentation for reconstructing the PET images. Then, a 10-min static PET imaging was performed to determined uptake in tumor and other organs.\nFor biodistribution studies, the mice were injected with the radiotracer as described above.",
  "data": [
    {"smiles": "O=C(O)CC[C@H](NC(=O)N[C@@H](CCCCNC(=O)[C@H](Cc1c2ccccc2cc2ccccc12)NC(=O)[C@H]1CC[C@H](CNC(=O)CN2CCN(CC(=O)O)CCN(CC(=O)O)CCN(CC(=O)O)CC2)CC1)C(=O)O)C(=O)O", "note": "[68Ga-HTK03041, metal not drawn]", "values": [
      {"measurement": "tissue uptake at 1 h", "setting": "Adrenal glands uptake", "value": "8.9 ± 2.56", "unit": "%ID/g"},
      {"measurement": "tissue uptake at 1 h", "setting": "Blood uptake", "value": "1.43 ± 0.3", "unit": "%ID/g"},
      {"measurement": "tissue uptake at 1 h", "setting": "Bone uptake", "value": "1.29 ± 0.45", "unit": "%ID/g"},
      {"measurement": "tissue uptake at 1 h", "setting": "Brain uptake", "value": "0.1 ± 0.05", "unit": "%ID/g"},
      {"measurement": "tissue uptake at 1 h", "setting": "Fat uptake", "value": "2.06 ± 0.59", "unit": "%ID/g"},
      {"measurement": "tissue uptake at 1 h", "setting": "Heart uptake", "value": "1.82 ± 0.21", "unit": "%ID/g"},
      {"measurement": "tissue uptake at 1 h", "setting": "Intestine uptake", "value": "1.14 ± 0.18", "unit": "%ID/g"},
      {"measurement": "tissue uptake at 1 h", "setting": "Kidneys uptake", "value": "170 ± 26.4", "unit": "%ID/g"},
      {"measurement": "tissue uptake at 1 h", "setting": "Lacrimal uptake", "value": "2.44 ± 1.79", "unit": "%ID/g"},
      {"measurement": "tissue uptake at 1 h", "setting": "Liver uptake", "value": "1.38 ± 0.25", "unit": "%ID/g"},
      {"measurement": "tissue uptake at 1 h", "setting": "Lungs uptake", "value": "4.32 ± 0.62", "unit": "%ID/g"},
      {"measurement": "tissue uptake at 1 h", "setting": "Muscle uptake", "value": "0.75 ± 0.09", "unit": "%ID/g"},
      {"measurement": "tissue uptake at 1 h", "setting": "Pancreas uptake", "value": "1.47 ± 0.16", "unit": "%ID/g"},
      {"measurement": "tissue uptake at 1 h", "setting": "Salivary uptake", "value": "4.99 ± 0.88", "unit": "%ID/g"},
      {"measurement": "tissue uptake at 1 h", "setting": "Seminal uptake", "value": "1.03 ± 0.27", "unit": "%ID/g"},
      {"measurement": "tissue uptake at 1 h", "setting": "Spleen uptake", "value": "8.95 ± 3.22", "unit": "%ID/g"},
      {"measurement": "tissue uptake at 1 h", "setting": "Stomach uptake", "value": "0.41 ± 0.11", "unit": "%ID/g"},
      {"measurement": "tissue uptake at 1 h", "setting": "Tail uptake", "value": "1.36 ± 0.45", "unit": "%ID/g"},
      {"measurement": "tissue uptake at 1 h", "setting": "Testes uptake", "value": "1.34 ± 0.22", "unit": "%ID/g"},
      {"measurement": "tissue uptake at 1 h", "setting": "Thyroid uptake", "value": "2.48 ± 0.44", "unit": "%ID/g"},
      {"measurement": "tissue uptake at 1 h", "setting": "Tumor uptake", "value": "23.1 ± 6.11", "unit": "%ID/g"},
      {"measurement": "excreta dose per gram or mL at 1 h", "setting": "Urine uptake", "value": "173 ± 93", "unit": "%ID/g"}
    ]}
  ]
}
